The record followed here is the supplement of paper PMC10567573.

The chains are these.
B1: EPB41L3 (parent)
chain: SELGDYDPDECGSDYISEFRFAPN
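Further: lentivirally expressed fusions sorted by FACS into six bins by GFP to DsRed ratio, PSI derived from sequencing read proportions per bin multiplied by bin number.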

The data set covers variants of B1. The data set can be described thus: protein stability index of a GFP-peptide fusion (GPS, HEK-293T) (PSI 1-6); higher = more stable. The settings on record: c terminus: a fixed tail appended.
Turning to SELGDYDPDECGSDYISEFRFKPN [A22K], the protein stability index was determined as 4.27.

Consider SELGDYDPDECGSDYISEFRFNPN [A22N], for which the protein stability index stood at 3.46. Regarding SELGDYDPDECGSDYISEFRFGPN [A22G], the protein stability index was found to be 4.21.

Turning to SELGDYDPDECGSDYISEFRFDPN [A22D], the protein stability index worked out at 4.92. As for SELGDYDPDECGSDYISEFRFTPN [A22T], the protein stability index was determined as 1.85.

In the case of SELGDYDPDECGSDYISEFRFYPN [A22Y], the protein stability index amounted to 3.51. SELGDYDPDECGSDYISEFRFCPN [A22C]: the protein stability index stood at 2.59. As for SELGDYDPDECGSDYISEFRFPPN [A22P], the protein stability index was 4. For SELGDYDPDECGSDYISEFRFQPN [A22Q], the protein stability index worked out at 2.39.

For SELGDYDPDECGSDYISEFRFWPN [A22W], the protein stability index stood at 3.47. The value for SELGDYDPDECGSDYISEFRFFPN [A22F] was 3.5; that for SELGDYDPDECGSDYISEFRFVPN [A22V] was 3.42; that for SELGDYDPDECGSDYISEFRFMPN [A22M] was 3.48. In the case of SELGDYDPDECGSDYISEFRFSPN [A22S], the protein stability index was determined as 3.33. The value for SELGDYDPDECGSDYISEFRFHPN [A22H] was 2.13. With SELGDYDPDECGSDYISEFRFEPN [A22E], the protein stability index was 4.24. On to SELGDYDPDECGSDYISEFRFIPN [A22I], for which the protein stability index was determined as 2.24. As to SELGDYDPDECGSDYISEFRFLPN [A22L], the protein stability index amounted to 3.73.

Regarding SELGDYDPDECGSDYISEFRFRPN [A22R], the protein stability index amounted to 4.12. SELGDYDPDECGSDYISEFRFAPP [N24P]: the protein stability index was determined as 2.84. On to SELGDYDPDECGSDYISEFRFAPI [N24I], for which the protein stability index is 2.55. For SELGDYDPDECGSDYISEFRFAPT [N24T], the protein stability index amounted to 2.12. Turning to SELGDYDPDECGSDYISEFRFAPC [N24C], the protein stability index stood at 1.64. In the case of SELGDYDPDECGSDYISEFRFAPY [N24Y], the protein stability index was 2.15. As for SELGDYDPDECGSDYISEFRFAPH [N24H], the protein stability index was 1.66. With SELGDYDPDECGSDYISEFRFAPS [N24S], the protein stability index came out at 1.87.

In the case of SELGDYDPDECGSDYISEFRFAPR [N24R], the protein stability index was found to be 2.44. Take SELGDYDPDECGSDYISEFRFAPA [N24A]: the protein stability index was determined as 2.6.

Turning to SELGDYDPDECGSDYISEFRFAPM [N24M], the protein stability index was determined as 1.79.

As to SELGDYDPDECGSDYISEFRFAPV [N24V], the protein stability index stood at 2.55. The value for SELGDYDPDECGSDYISEFRFAPQ [N24Q] was 2.09; that for SELGDYDPDECGSDYISEFRFAPF [N24F] was 2.25; that for SELGDYDPDECGSDYISEFRFAPD [N24D] was 2.89. The value for SELGDYDPDECGSDYISEFRFAPW [N24W] was 2.45; that for SELGDYDPDECGSDYISEFRFAPK [N24K] was 1.69; that for SELGDYDPDECGSDYISEFRFAPG [N24G] was 2.33. On to SELGDYDPDECGSDYISEFRFAPL [N24L], for which the protein stability index worked out at 2.02. Take SELGDYDPDECGSDYISEFRFAPE [N24E]: the protein stability index amounted to 3.33. In the case of SELGDYDPDECGSDYISEFRFANN [P23N], the protein stability index stood at 2.42. As for SELGDYDPDECGSDYISEFRFAKN [P23K], the protein stability index came to 2.68. On to SELGDYDPDECGSDYISEFRFAYN [P23Y], for which the protein stability index came out at 2.89. Then SELGDYDPDECGSDYISEFRFAEN [P23E], with 4.66; and SELGDYDPDECGSDYISEFRFALN [P23L], with 2.81; and SELGDYDPDECGSDYISEFRFAIN [P23I], with 2.7. On to SELGDYDPDECGSDYISEFRFAWN [P23W], for which the protein stability index turned out to be 2.47. SELGDYDPDECGSDYISEFRFADN [P23D]: the protein stability index came out at 4. For the variant SELGDYDPDECGSDYISEFRFASN [P23S], the protein stability index turned out to be 2.51. In the case of SELGDYDPDECGSDYISEFRFACN [P23C], the protein stability index stood at 2.12. The value for SELGDYDPDECGSDYISEFRFATN [P23T] was 3.15; that for SELGDYDPDECGSDYISEFRFAVN [P23V] was 2.53; that for SELGDYDPDECGSDYISEFRFAFN [P23F] was 2.96. SELGDYDPDECGSDYISEFRFAQN [P23Q]: the protein stability index is 2.92. Take SELGDYDPDECGSDYISEFRFARN [P23R]: the protein stability index was determined as 1.53. Then SELGDYDPDECGSDYISEFRFAAN [P23A], with 2.48; and SELGDYDPDECGSDYISEFRFAHN [P23H], with 2.44. The value for SELGDYDPDECGSDYISEFRFAMN [P23M] was 3.26.

Turning to SELGDYDPDECGSDYISEFRFAGN [P23G], the protein stability index is 2.37.

As to SELGDYDPDECGSDYISEFRNAPN [F21N], the protein stability index was determined as 4.74. As for SELGDYDPDECGSDYISEFRHAPN [F21H], the protein stability index is 4.17. The value for SELGDYDPDECGSDYISEFRMAPN [F21M] was 4.43; that for SELGDYDPDECGSDYISEFRDAPN [F21D] was 4.68. For SELGDYDPDECGSDYISEFRPAPN [F21P], the protein stability index came out at 4.96. Turning to SELGDYDPDECGSDYISEFRYAPN [F21Y], the protein stability index is 4.55. Turning to SELGDYDPDECGSDYISEFRTAPN [F21T], the protein stability index stood at 4.87.

Consider SELGDYDPDECGSDYISEFRWAPN [F21W], for which the protein stability index was 4.24. On to SELGDYDPDECGSDYISEFRLAPN [F21L], for which the protein stability index turned out to be 4.61. For SELGDYDPDECGSDYISEFRGAPN [F21G], the protein stability index was found to be 5.01.

For the variant SELGDYDPDECGSDYISEFRAAPN [F21A], the protein stability index worked out at 4.75.

With SELGDYDPDECGSDYISEFREAPN [F21E], the protein stability index stood at 4.78. As to SELGDYDPDECGSDYISEFRIAPN [F21I], the protein stability index was found to be 4.38.

Consider SELGDYDPDECGSDYISEFRSAPN [F21S], for which the protein stability index was determined as 5.07. The value for SELGDYDPDECGSDYISEFRVAPN [F21V] was 4.52; that for SELGDYDPDECGSDYISEFRQAPN [F21Q] was 4.97. In the case of SELGDYDPDECGSDYISEFRKAPN [F21K], the protein stability index stood at 5.22. SELGDYDPDECGSDYISEFRCAPN [F21C]: the protein stability index came out at 4.69.

For the variant SELGDYDPDECGSDYISEFRRAPN [F21R], the protein stability index was 4.64.

On to SELGDYDPDECGSDYISEFAFAPN [R20A], for which the protein stability index was determined as 4.25. Turning to SELGDYDPDECGSDYISEFHFAPN [R20H], the protein stability index amounted to 4.32. SELGDYDPDECGSDYISEFDFAPN [R20D]: the protein stability index is 4.72. Then SELGDYDPDECGSDYISEFYFAPN [R20Y], with 3.75. Regarding SELGDYDPDECGSDYISEFEFAPN [R20E], the protein stability index was 5.02. In the case of SELGDYDPDECGSDYISEFWFAPN [R20W], the protein stability index turned out to be 3.92.

Turning to SELGDYDPDECGSDYISEFSFAPN [R20S], the protein stability index was found to be 4.68. SELGDYDPDECGSDYISEFCFAPN [R20C]: the protein stability index worked out at 4.56. Then SELGDYDPDECGSDYISEFKFAPN [R20K], with 4.53. The value for SELGDYDPDECGSDYISEFFFAPN [R20F] was 4.09; that for SELGDYDPDECGSDYISEFLFAPN [R20L] was 4.02; that for SELGDYDPDECGSDYISEFPFAPN [R20P] was 4.81. As for SELGDYDPDECGSDYISEFVFAPN [R20V], the protein stability index is 4.4.

Consider SELGDYDPDECGSDYISEFMFAPN [R20M], for which the protein stability index was 3.92.

Consider SELGDYDPDECGSDYISEFQFAPN [R20Q], for which the protein stability index stood at 4.7.

As for SELGDYDPDECGSDYISEFNFAPN [R20N], the protein stability index was determined as 4.54. As for SELGDYDPDECGSDYISEFTFAPN [R20T], the protein stability index came to 4.18. Turning to SELGDYDPDECGSDYISEFGFAPN [R20G], the protein stability index turned out to be 4.79.
